This data set relates to Escherichia coli TOP10. Nature of the data set: shrunken log2 fold change of peptide-encoding DNA abundance (4.5 h post-induction vs induction); higher = less antimicrobial activity (less host growth inhibition). Particulars: time post-induction: 4.5 h; library: site-saturation at positions 5, 18, 19, 20.
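Note: peptides expressed intracellularly from a pBAD plasmid library in pooled LB shake-flask culture, induced with 0.3% L-arabinose, DNA abundance read by NGS, three biological replicates, DESeq2 with apeglm shrinkage.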

Turning to RRIRSRPPRLPRPRPRPSMDPRP, the “shrunken log2 fold change” value is -0.514.

As for RRIRHRPPRLPRPRPRPLKEPRP, the “shrunken log2 fold change” value is -0.0179. Take RRIRARPPRLPRPRPRPHASPRP: the “shrunken log2 fold change” value was -0.0111. Under RRIRVRPPRLPRPRPRPWEFPRP stands -0.102.

As for RRIRSRPPRLPRPRPRPTSDPRP, the “shrunken log2 fold change” value is -0.00252.

For RRIRLRPPRLPRPRPRPGLDPRP, the “shrunken log2 fold change” value is -0.0233. Under RRIRIRPPRLPRPRPRPTALPRP stands 0.0424; under RRIRARPPRLPRPRPRPHAQPRP, 0.122; under RRIRSRPPRLPRPRPRPDNFPRP, -0.299. Under RRIRIRPPRLPRPRPRPTNIPRP stands -0.237.

As to RRIRLRPPRLPRPRPRPNAHPRP, the “shrunken log2 fold change” value was -0.154.

For the sequence RRIRVRPPRLPRPRPRPSMWPRP, the “shrunken log2 fold change” value is -0.104.

Take RRIRDRPPRLPRPRPRPRNKPRP: the “shrunken log2 fold change” value is -0.014. Consider RRIRQRPPRLPRPRPRPEHWPRP, for which the “shrunken log2 fold change” value amounted to 0.0788. Under RRIRTRPPRLPRPRPRPYNAPRP stands -1.3. Under RRIRTRPPRLPRPRPRPVQFPRP stands -0.0192; under RRIRIRPPRLPRPRPRPSWYPRP, -0.604; under RRIRNRPPRLPRPRPRPPIQPRP, 0.0569. In the case of RRIRERPPRLPRPRPRPCEAPRP it was -0.041; in that of RRIRGRPPRLPRPRPRPAHMPRP, 0.145; in that of RRIRIRPPRLPRPRPRPRCHPRP, -0.466. In the case of RRIRHRPPRLPRPRPRPGMDPRP, the “shrunken log2 fold change” value was -0.0518. In the case of RRIRSRPPRLPRPRPRPLTWPRP it was -0.104; in that of RRIRIRPPRLPRPRPRPNMQPRP, -0.29; in that of RRIRKRPPRLPRPRPRPFCAPRP, 0.588. Take RRIRWRPPRLPRPRPRPHSWPRP: the “shrunken log2 fold change” value was 0.189. Under RRIRFRPPRLPRPRPRPNYKPRP stands -0.735; under RRIRKRPPRLPRPRPRPWVAPRP, 0.282. Under RRIRLRPPRLPRPRPRPASHPRP stands 0.0961; under RRIRERPPRLPRPRPRPLRMPRP, 0.167; under RRIRNRPPRLPRPRPRPFKEPRP, -0.161. In the case of RRIRGRPPRLPRPRPRPHLVPRP it was 0.294; in that of RRIRFRPPRLPRPRPRPSYCPRP, -0.345.

Regarding RRIRGRPPRLPRPRPRPVTRPRP, the “shrunken log2 fold change” value stood at 0.383. Consider RRIRNRPPRLPRPRPRPPMNPRP, for which the “shrunken log2 fold change” value was -0.0606.

Turning to RRIRKRPPRLPRPRPRPPEIPRP, the “shrunken log2 fold change” value turned out to be 0.131.

As for RRIRARPPRLPRPRPRPPWAPRP, the “shrunken log2 fold change” value was determined as 0.576. In the case of RRIRRRPPRLPRPRPRPKHHPRP it was 0.346. In the case of RRIRDRPPRLPRPRPRPYFGPRP, the “shrunken log2 fold change” value was -0.551.

For the sequence RRIRDRPPRLPRPRPRPCSAPRP, the “shrunken log2 fold change” value is 0.45.

As for RRIRQRPPRLPRPRPRPHNFPRP, the “shrunken log2 fold change” value is -0.154. RRIRFRPPRLPRPRPRPHWRPRP: the “shrunken log2 fold change” value came to 0.121. Turning to RRIRDRPPRLPRPRPRPCAPPRP, the “shrunken log2 fold change” value was -0.0226. In the case of RRIRGRPPRLPRPRPRPCGMPRP, the “shrunken log2 fold change” value is 0.0775.

Turning to RRIRRRPPRLPRPRPRPHWYPRP, the “shrunken log2 fold change” value was -0.404.

Consider RRIRDRPPRLPRPRPRPLHWPRP, for which the “shrunken log2 fold change” value is -0.124. In the case of RRIRHRPPRLPRPRPRPKPSPRP it was 0.411; in that of RRIRLRPPRLPRPRPRPYKPPRP, -0.789.

With RRIRQRPPRLPRPRPRPFCVPRP, the “shrunken log2 fold change” value was -0.0258.

In the case of RRIRNRPPRLPRPRPRPRFEPRP, the “shrunken log2 fold change” value was found to be 0.108. In the case of RRIRVRPPRLPRPRPRPTHDPRP, the “shrunken log2 fold change” value was 0.143.

Take RRIRVRPPRLPRPRPRPGMKPRP: the “shrunken log2 fold change” value is -1.14. Under RRIRNRPPRLPRPRPRPGIRPRP stands 0.0989; under RRIRHRPPRLPRPRPRPNLTPRP, -0.588. With RRIRNRPPRLPRPRPRPPKKPRP, the “shrunken log2 fold change” value is -0.166. As to RRIRHRPPRLPRPRPRPNAWPRP, the “shrunken log2 fold change” value was found to be 0.341. In the case of RRIRHRPPRLPRPRPRPVSPPRP it was 0.183; in that of RRIRGRPPRLPRPRPRPGFCPRP, 0.925. In the case of RRIRFRPPRLPRPRPRPFCWPRP it was 0.4. In the case of RRIRSRPPRLPRPRPRPNGMPRP it was -0.0245; in that of RRIRQRPPRLPRPRPRPITIPRP, -0.239. On to RRIRKRPPRLPRPRPRPIFGPRP, for which the “shrunken log2 fold change” value was 2.55.

The values above are taken from the supplement of paper PMC9112550, “Optimization of the antimicrobial peptide Bac7 by deep mutational scanning” (BMC Biology, 2022).
